Results reported in paper PMC5915679.

Biological target: human Argonaute-2 (human) (UniProt Q9UKV8)
Test: ITC

Binder	Kd [nM]	fold lower affinity than without competitor (with 5 μM motif-2) [fold]	fold lower affinity than without competitor (with 10 μM motif-2) [fold]
VNRTDLDPRVLSNSGWGQTPIKQNTAWDTETSPRGE (domain or fragment) [hGW182 (TNRC6A) motif-1]	118		
TVDNGTSAWGKPIDSGPSWGEP [hGW182 (TNRC6A) hook motif]	234	7	15
